From the supplement of paper PMC10567573

B1: OAS1 (parent)
chain: TPAKSLDKFIEDYLLPDTCFRMQI

Variants of: B1
Test: protein stability index of a GFP-peptide fusion (GPS, HEK-293T) (PSI 1-6); higher = more stable
Conditions: c terminus: a fixed tail appended
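Note: lentivirally expressed fusions sorted by FACS into six bins by GFP to DsRed ratio, PSI derived from sequencing read proportions per bin multiplied by bin number.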

Row | Variant | protein stability index
1 | TPAKSHDKFIEDYLLPDTCFRMQI | 2.66
2 | TPAKSEDKFIEDYLLPDTCFRMQI | 1.49
3 | TPAKSYDKFIEDYLLPDTCFRMQI | 3
4 | TPAKSFDKFIEDYLLPDTCFRMQI | 4.79
5 | TPAKSMDKFIEDYLLPDTCFRMQI | 2.18
6 | TPAKSPDKFIEDYLLPDTCFRMQI | 2.43
7 | TPAKSSDKFIEDYLLPDTCFRMQI | 1.94
8 | TPAKSVDKFIEDYLLPDTCFRMQI | 1.97
9 | TPAKSLDKFIEDYLLPDTCFRMRI | 3.21
10 | TPAKSLDKFIEDYLLPDTCFRMCI | 3.21
11 | TPAKSLDKFIEDYLLPDTCFRMHI | 3.27
12 | TPAKSLDKFIEDYLLPDTCFRMKI | 1.54
13 | TPAKSLDKFIEDYLLPDTCFRMII | 2.22
14 | TPAKSLDKFIEDYLLPDTCFRMGI | 3.25
15 | TPAKSLDKFIEDYLLPDTCFRMPI | 1.99
16 | TPAKSLDKFIEDYLLPDTCFRMDI | 2.73
17 | TPAKSLDKFIEDYLLPDTCFRMAI | 3.37
18 | TPAKSLDKFIEDYLLPDTCFRMQT | 1.46
19 | TPAKSLDKFIEDYLLPDTCFRMQS | 1.84
20 | TPAKSLDKFIEDYLLPDTCFRMQD | 2.47
21 | TPAKSLDKFIEDYLLPDTCFRMQA | 1.74
22 | TPAKSLDKFIEDYLLPDTCFRMQR | 2.43
23 | TPAKSLDKFIEDYLLPDTCFRMQY | 1.56
24 | TPAKSLDKFIEDYLLPDQCFRMQI | 2.89

Row | Variant | protein stability index
25 | TPAKSLDKFIEDYLLPDPCFRMQI | 1.59
26 | TPAKSLDKFIEDYLLPDICFRMQI | 2.04
27 | TPAKSLDKFIEDYLLPDKCFRMQI | 1.83
28 | TPAKSLDKFIEDYLLPDECFRMQI | 3.65
29 | TPAKSLDKFIEDYLLPDMCFRMQI | 2.36
30 | TPAKSLDKFIEDYLLPDVCFRMQI | 2.23
31 | TPAKSLDKFIEDYLLPTTCFRMQI | 2.03
32 | TPAKSLDKFIEDYLLPLTCFRMQI | 3.49
33 | TPAKSLDKFIEDYLLPYTCFRMQI | 2.32
34 | TPAKSLDKFIEDYLLPGTCFRMQI | 3.94
35 | TPAKSLDKFIEDYLLPSTCFRMQI | 2.79
36 | TPAKSLDKFIEDYLLPFTCFRMQI | 3.31
37 | TPAKSLDKFIEDYLLPHTCFRMQI | 2.43
38 | TPAKSLDKFIEDYLLPRTCFRMQI | 2.98
39 | TPAKSLDKFIEDYLLPATCFRMQI | 2.9
40 | TPALSLDKFIEDYLLPDTCFRMQI | 2.23
41 | TPACSLDKFIEDYLLPDTCFRMQI | 2.29
42 | TPASSLDKFIEDYLLPDTCFRMQI | 2.24
43 | TPANSLDKFIEDYLLPDTCFRMQI | 2.52
44 | TPATSLDKFIEDYLLPDTCFRMQI | 2.48
45 | TPAISLDKFIEDYLLPDTCFRMQI | 1.9
46 | TPAWSLDKFIEDYLLPDTCFRMQI | 3.85
47 | TPADSLDKFIEDYLLPDTCFRMQI | 2.19
48 | TPAKSLDKFIEDYLLWDTCFRMQI | 1.9

Row | Variant | protein stability index
49 | TPAKSLDKFIEDYLLEDTCFRMQI | 1.93
50 | TPAKSLDKFIEDYLLQDTCFRMQI | 3.14
51 | TPAKSLDKFIEDYLLTDTCFRMQI | 2.68
52 | TPAKSLDKFIEDYLLPDTEFRMQI | 1.43
53 | TPAKSLDKFIEDYLLPDTQFRMQI | 2.3
54 | TPAKSLDKFIEDYLLPDTYFRMQI | 3.22
55 | TPAKSLDKFIEDYLLPDTPFRMQI | 2.68
56 | TPAKSLDKFIEDYLLPDTDFRMQI | 1.62
57 | TPAKSLDKFIEDYLLPDTAFRMQI | 2.88
58 | TPAKSLDKFIEDYLLPDTIFRMQI | 4.78
59 | TPAKSLDKFIEDYLLPDTVFRMQI | 3.28
60 | TPAKSLDKFIEDYLLPDTKFRMQI | 1.59
61 | TPAKFLDKFIEDYLLPDTCFRMQI | 1.63
62 | TPAKTLDKFIEDYLLPDTCFRMQI | 2.86
63 | TPAKNLDKFIEDYLLPDTCFRMQI | 2.78
64 | TPAKILDKFIEDYLLPDTCFRMQI | 2.43
65 | TPAKWLDKFIEDYLLPDTCFRMQI | 1.99
66 | TPAKLLDKFIEDYLLPDTCFRMQI | 3.15
67 | TPAKELDKFIEDYLLPDTCFRMQI | 1.74
68 | TPAKDLDKFIEDYLLPDTCFRMQI | 2.02
69 | TPAKSLDTFIEDYLLPDTCFRMQI | 3.17
70 | TPAKSLDDFIEDYLLPDTCFRMQI | 2.58
71 | TPAKSLDGFIEDYLLPDTCFRMQI | 1.62
72 | TPAKSLDLFIEDYLLPDTCFRMQI | 3.06

Row | Variant | protein stability index
73 | TPAKSLDAFIEDYLLPDTCFRMQI | 2.58
74 | TPAKSLDVFIEDYLLPDTCFRMQI | 3.42
75 | TPAKSLDWFIEDYLLPDTCFRMQI | 1.98
76 | TPAKSLDKFDEDYLLPDTCFRMQI | 1.55
77 | TPAKSLDKFEEDYLLPDTCFRMQI | 2.52
78 | TPAKSLDKFTEDYLLPDTCFRMQI | 2.35
79 | TPAKSLDKFYEDYLLPDTCFRMQI | 2.38
80 | TPAKSLDKFCEDYLLPDTCFRMQI | 3.19
81 | TPAKSLDKFFEDYLLPDTCFRMQI | 3.41
82 | TPAKSLDKFQEDYLLPDTCFRMQI | 1.67
83 | TPAKSLDKFSEDYLLPDTCFRMQI | 1.7
84 | TPAKSLDKFMEDYLLPDTCFRMQI | 3.83
85 | TPAKSLDKFLEDYLLPDTCFRMQI | 3.56
86 | TPFKSLDKFIEDYLLPDTCFRMQI | 3.88
87 | TPTKSLDKFIEDYLLPDTCFRMQI | 1.64
88 | TPHKSLDKFIEDYLLPDTCFRMQI | 2.99
89 | TPCKSLDKFIEDYLLPDTCFRMQI | 3.23
90 | TPSKSLDKFIEDYLLPDTCFRMQI | 2.42
91 | TPKKSLDKFIEDYLLPDTCFRMQI | 2.57
92 | TPLKSLDKFIEDYLLPDTCFRMQI | 2.85
93 | TPAKSLDKFIEDYLLPDTCFRTQI | 2.21
94 | TPAKSLDKFIEDYLLPDTCFREQI | 2.23
95 | TPAKSLDKFIEDYLLPDTCFRPQI | 2.03
96 | TPAKSLDKFIEDYLLPDTCFRGQI | 2.51

Row | Variant | protein stability index
97 | TPAKSLDKFIEDYLLPDTCFRAQI | 1.93
98 | TPAKSLDKFIEDYLLPDTCFRDQI | 2.1
99 | TPAKSLDKFIEDYLLPDTCFRIQI | 3.42
100 | TPAKSLDKFIEDYLLPDTCFRSQI | 1.64
101 | TPAKSLDKFIEDYLLPDTCFRNQI | 1.99
102 | TPAKSLDKFIEDYLLPDTCFRWQI | 2.45
103 | TPAKSLDKFIEDYLLPDTCFRKQI | 1.98
104 | TPAKSLDKFIEDYLLPDTCFRFQI | 1.35
105 | TPAKSLDKFIEDYLLPDTCFRQQI | 1.5
106 | TPAKSLDKFIEDYLLPDTCFWMQI | 1.43
107 | TPAKSLDKFIEDYLLPDTCFPMQI | 1.31
108 | TPAKSLDKFIEDYLLPDTCFAMQI | 3.28
109 | TPAKSLDKFIEDYLLPDTCFLMQI | 3.64
110 | TPAKSLDKFIEDYLLPDTCFFMQI | 2.13
111 | TPAKSLDKFIEDYLLPDTCFNMQI | 2.73
112 | TPAKSLDKFIEDYLLPDTCFIMQI | 2.93
113 | TPAKSLNKFIEDYLLPDTCFRMQI | 2.1
114 | TPAKSLRKFIEDYLLPDTCFRMQI | 2.9
115 | TPAKSLYKFIEDYLLPDTCFRMQI | 2.21
116 | TPAKSLKKFIEDYLLPDTCFRMQI | 2.05
117 | TPAKSLTKFIEDYLLPDTCFRMQI | 1.25
118 | TPAKSLLKFIEDYLLPDTCFRMQI | 2.42
119 | TPAKSLDKFIEDYLNPDTCFRMQI | 2.21
120 | TPAKSLDKFIEDYLIPDTCFRMQI | 3.88

Row | Variant | protein stability index
121 | TPAKSLDKFIEDYLKPDTCFRMQI | 2.07
122 | TPAKSLDKFIEDYLGPDTCFRMQI | 2.43
123 | TPAKSLDKFIEDYLDPDTCFRMQI | 1.74
124 | TPAKSLDKFIEDYLQPDTCFRMQI | 3.04
125 | TPAKSLDKFIEDYLAPDTCFRMQI | 1.72
126 | TPAKSLDKFIEDYLWPDTCFRMQI | 2.56
127 | TPAKSLDKFIEDYLTPDTCFRMQI | 1.74
128 | TPAKSLDKFIEDYLPPDTCFRMQI | 2.31
129 | TPAKSLDKFIEDYLEPDTCFRMQI | 3.04
130 | TPAKSLDKFIEDYLHPDTCFRMQI | 2.12
131 | TSAKSLDKFIEDYLLPDTCFRMQI | 1.69
132 | TRAKSLDKFIEDYLLPDTCFRMQI | 2.81
133 | TDAKSLDKFIEDYLLPDTCFRMQI | 1.92
134 | TIAKSLDKFIEDYLLPDTCFRMQI | 2.16
135 | TVAKSLDKFIEDYLLPDTCFRMQI | 1.74
136 | TCAKSLDKFIEDYLLPDTCFRMQI | 3.55
137 | TGAKSLDKFIEDYLLPDTCFRMQI | 3.49
138 | TPAKSLDKFIEDYLLPDTCIRMQI | 3.6
139 | TPAKSLDKFIEDYLLPDTCERMQI | 1.97
140 | TPAKSLDKFIEDYLLPDTCWRMQI | 3.38
141 | TPAKSLDKFIEDYLLPDTCVRMQI | 2.97
142 | TPAKSLDKFIEDYLLPDTCSRMQI | 2.28
143 | TPAKSLDKFIEDYLLPDTCMRMQI | 3.12
144 | TPAKSLDKFIEDYLLPDTCARMQI | 2.23

Row | Variant | protein stability index
145 | TPAKSLDKFIEDYLLPDTCNRMQI | 1.95
146 | TPAKSLDKFIEDYLLPDTCRRMQI | 2.8
147 | TPAKSLDKFIEDYLLPDTCGRMQI | 1.74
148 | TPAKSLDKFIEDYLLPDTCPRMQI | 1.75
149 | TPAKSLDKFIEDMLLPDTCFRMQI | 2.12
150 | TPAKSLDKFIEDFLLPDTCFRMQI | 3.4
151 | TPAKSLDKFIEDDLLPDTCFRMQI | 2.36
152 | TPAKSLDKFIEDGLLPDTCFRMQI | 1.85
153 | TPAKSLDKFIEDNLLPDTCFRMQI | 1.85
154 | TPAKSLDKFIEDPLLPDTCFRMQI | 1.57
155 | PPAKSLDKFIEDYLLPDTCFRMQI | 2.51
156 | VPAKSLDKFIEDYLLPDTCFRMQI | 1.06
157 | SPAKSLDKFIEDYLLPDTCFRMQI | 2.13
158 | EPAKSLDKFIEDYLLPDTCFRMQI | 1.7
159 | GPAKSLDKFIEDYLLPDTCFRMQI | 3.6
160 | APAKSLDKFIEDYLLPDTCFRMQI | 2.48
161 | CPAKSLDKFIEDYLLPDTCFRMQI | 2.39
162 | TPAKSLDKFIEDYFLPDTCFRMQI | 3.94
163 | TPAKSLDKFIEDYILPDTCFRMQI | 2.08
164 | TPAKSLDKFIEDYTLPDTCFRMQI | 2.05
165 | TPAKSLDKFIEDYHLPDTCFRMQI | 2.62
166 | TPAKSLDKFIEDYQLPDTCFRMQI | 1.62
167 | TPAKSLDKFIEDYMLPDTCFRMQI | 3.5
168 | TPAKSLDKFIEDYYLPDTCFRMQI | 3.1

Row | Variant | protein stability index
169 | TPAKSLDKFIEYYLLPDTCFRMQI | 2.19
170 | TPAKSLDKFIEGYLLPDTCFRMQI | 1.79
171 | TPAKSLDKFIECYLLPDTCFRMQI | 1.76
172 | TPAKSLDKFIEWYLLPDTCFRMQI | 2.51
173 | TPAKSLDKFIEFYLLPDTCFRMQI | 2.97
174 | TPAKSLDKFIELYLLPDTCFRMQI | 2.81
175 | TPAKSLDKFIEIYLLPDTCFRMQI | 1.4
176 | TPAKSLDKFIETYLLPDTCFRMQI | 2.58
177 | TPAKSLDKFIGDYLLPDTCFRMQI | 3
178 | TPAKSLDKFIMDYLLPDTCFRMQI | 3.78
179 | TPAKSLDKFIADYLLPDTCFRMQI | 2.77
180 | TPAKSLDKFITDYLLPDTCFRMQI | 2.33
181 | TPAKSLDKFILDYLLPDTCFRMQI | 3.59
182 | TPAKSLDKLIEDYLLPDTCFRMQI | 3.52
183 | TPAKSLDKWIEDYLLPDTCFRMQI | 3.55
184 | TPAKSLDKGIEDYLLPDTCFRMQI | 1.62
185 | TPAKSLDKNIEDYLLPDTCFRMQI | 3.1
186 | TPAKSLDKVIEDYLLPDTCFRMQI | 3.9
187 | TPAKSLDKSIEDYLLPDTCFRMQI | 2.32
188 | TPAKSLDKCIEDYLLPDTCFRMQI | 2.66
